{"source": "the nanobody polyreactivity screen of Harvey et al. (2022)", "data": [{"assay": "yeast display, Sf9 membrane polyspecificity reagent, FACS + sequencing; frameworks hold sequencing errors", "how_it_was_run": "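After 36–48 hours of galactose induction, yeast (Saccharomyces cerevisiae BJ5465) displaying a synthetic nanobody library were stained at 4 °C for 1 hour with 10% biotinylated, detergent-solubilized Sf9 membrane reagent. Streptavidin microbeads enriched the stained cells before FACS sorting into low and high (top ~1%) gates on anti-HA and streptavidin fluorescence. Each clone's polyreactivity label reflects its gate of origin.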", "values": [{"sequence": "QVQLVESGGGLVQAGGSLRLSCAASGYTFSYYDMGWYRQAPGKERELVAGISKRGGSTRYADSVKGRFTISRDNAKNTVYLQMNSLKPEDTAVYYCNRLPYLHYAGRLTNYDYWGQGTQVTVSS", "polyreactivity (PSR sort gate)": "high polyreactivity"}, {"sequence": "QVQLVESGGGLVQAGGSLRLSCAASGSTFTDYAMGWYRQAPGKERELVAAITKSGGSTYYADSVKGRFTISRDNAKNTVYLQMNSLKPEDTAVYYCAAGNHRRPADYGSWGQGTQVTVSS", "polyreactivity (PSR sort gate)": "low polyreactivity"}, {"sequence": "QVQLVESGGGLVQAGGSLRLSCAASGFTFVRYTMGWYRQSPGKEREMVAAINRSGGNTYYADSVKGRFTISRDNAKNTVYLQMNSLKPEDTAVYYCAAGYYVQVSLKDYYWGQGTQVTVSS", "polyreactivity (PSR sort gate)": "high polyreactivity"}, {"sequence": "QVQLVESGGGLVQAGGSLRLSCAASGRIFRKNVMGWYRQAPGKERELVAAIRWSGGGTYYADSVKGRFTISRDNAKNTVYLQMNSLKPEDTAVYYCAAVPTSSAYDYWGQGTQVTVSS", "polyreactivity (PSR sort gate)": "high polyreactivity"}, {"sequence": "QVQLVESGGGLVQAGGSLRLSCAASGSIFGFNAMGWYRPAPGKERELVAGITSGDRTNYADSVKGRFTISRDNAKNTVYLQMNSLKPEDTAVYYCAARKYVFFKMYYWGQGTQVTVSS", "polyreactivity (PSR sort gate)": "low polyreactivity"}, {"sequence": "QVQLVESGGGLVQAGGSLRLSCAASGRIFSPYAMGWYRQAPGKERELVAAINYSGSRTYYADSVTGRFTISRDNAKNTVYLQMNSLKPEDTAVYYCARPWAPSSRGNGYWGLGTQVTVSS", "polyreactivity (PSR sort gate)": "high polyreactivity"}, {"sequence": "QVQLVESCGCLVQAGGSLRLSCAAYGITFGRNTMVWDRQAPGKERELVAAIDSGGNTYAVSVKGRFTISRDNAKNTVYLQMISLKPEDTAVYYCAVDGGEFSSYGYWGQGTQVTVSS", "polyreactivity (PSR sort gate)": "low polyreactivity"}, {"sequence": "QVQLVDSAGGLVQAGGSLRLSCDDSGRTFWYYTMGWYRQAPGKEREFLAAIRGSGTSTYYADSVKARYTISRDNAKNTVYFQMNSLKPEDTADYYCAAESPVYHLVTYDYWGQGTQVTVSS", "polyreactivity (PSR sort gate)": "high polyreactivity"}, {"sequence": "QVQLVESGVGLVKAGGSLRLSCATSGLILYRYVMGWYRQAAGKERQLVAAISSSGGRTYYADSVKGRFTISRDNAKNTVYLQMNSLKPEDTAVYYCAKRRSDARRGYDYLGQGTQVTVSS", "polyreactivity (PSR sort gate)": "high polyreactivity"}, {"sequence": "QVQLVESGGGLVQAGGSLRLSCAASGLMVTYYAMCGYRPAPGKARELVAAINYSGGSTYDADSVKGRFTISRDNAKTTVYLLMNSLKPEDTAVYYCAARRFTQTEGPMGYWGQGTQVTFSS", "polyreactivity (PSR sort gate)": "low polyreactivity"}, {"sequence": "QVQLVESGGGLVQAGGSLLLICAASGSTFYLNAMGWYRQAPGKERELVAAITGRSGSTYYADSVKVRFTISRDNAKNTVYLQMNSLKPEDTAVYYCAADYSPWRSDFDYWGQGTQVTVSS", "polyreactivity (PSR sort gate)": "low polyreactivity"}, {"sequence": "QVQLVESGGGLVQAGGSLRLSCAASGRIFQIYAMGWYRQAPGKERELVAAISGSTSYADSVKGRFTISRDNAKNTVYLQMNCLKPEDSAVYDCSALSLLPNGEYWGQGSQVTVSS", "polyreactivity (PSR sort gate)": "low polyreactivity"}, {"sequence": "QDQLVESGGGLVQAGGSLRLSCDASGSIIQSYTMGWYRQAPGKERELVAAIDSGGSTYYADSVKGRFTISRDNAKNTVYLQMNSLKPEDTAVYYCAAEPDTYWYTYDYWGQGTQVTVSS", "polyreactivity (PSR sort gate)": "low polyreactivity"}, {"sequence": "QVQLVESGGGLVQAGGSLRLSCAASGNTFLPNAMGWYRQAPGKERELVAAISNSGGSTYYADSVKGRFTISRDNAKNTVYLQMNSLKPEDTAVYYCAKRQWFPYYRGRDYWGQGTQVTVSS", "polyreactivity (PSR sort gate)": "high polyreactivity"}, {"sequence": "QVQLVESGGGLVQAGGSLRLSCAASGRTFYDYDMGCDRQAPGKERELVAAISGGDSTYYADSVKGRFTISRDNAKNTVYLQMNSLKPEDTAVYYCAVTPRGLPYGAYLLYYWGQGTQVTVSS", "polyreactivity (PSR sort gate)": "low polyreactivity"}, {"sequence": "QVQLVESGGGLVHAGGSLRLSCAASGSIFTGYAMGWYRQAPGKERELVAAIDYRSGSTYYADSVKGRFTISRDNAKNTVYLQMNSLKPEDTAVYYCAAPAGWGFDEAFGYGYWGQGTQVTVSS", "polyreactivity (PSR sort gate)": "low polyreactivity"}, {"sequence": "QVQLVESGGGLVQAGGSLRLSSAASGRIFNPNGMGWYRQAPGKDRELVAVITRSGTSTYYADSVKGRFTISREYAKNTFYRQMYSLKPEDTAVYYCNAGKKYVDYGVLSSRYYWGQGTQVTVSS", "polyreactivity (PSR sort gate)": "low polyreactivity"}, {"sequence": "QVQHVESGGGLVQAGGSLRLSCAASGLIFWLNAMGWYRHEPGKEREMVATITAGGDDTNYADPVKGRFTISRDNAKNTVYLQMNSLKPEDTAVYYCAKSRTRSGHYGYDYWGQGTQVTVSS", "polyreactivity (PSR sort gate)": "low polyreactivity"}, {"sequence": "QVQLVESGGGLVQAGGSLRLSCAASGSIFGWYAMRSYRQAPGKATELVASISGSGGSTYYADSVKGRFTISRDNAKNTVYLQMNSLKPEDTAVYYCAADYALSSLPFDYWGQGTQVTVSS", "polyreactivity (PSR sort gate)": "high polyreactivity"}, {"sequence": "QVQLVESGGGLVQAGGRLRFSCAASGSIFEYYTMGWYRQAPGKERELVAAISDGGSTYYADSVKGRFTISRDNAKNTVYLQMNSLKPDDTAFYYCAAEYQQDFWVAVDYWGQGTQLTVSS", "polyreactivity (PSR sort gate)": "low polyreactivity"}, {"sequence": "QVQLVESGGGLVQAGGSLRLSCAASGRTFRNYAMGWYRQAPGKEREFVAAITGRGGSTYYADSVKGRFTISRDNAKNTVYLQMNSLKPEDTAVYYCAAVSGRTGQRTYYPYYYWGQGTQVTVSS", "polyreactivity (PSR sort gate)": "high polyreactivity"}, {"sequence": "QVQLVESGGGLVQAGGSLRLSCAASGLTFVPNAMGWYRQAPGKERELVAAISNNGGRTYYADSVKGRFTISRDNAKNTVYLQMNSLKPEDTAVYYCAKYLSPGERHSYDYWGQGTQVTVSS", "polyreactivity (PSR sort gate)": "high polyreactivity"}, {"sequence": "QVQLQECGGGLVQAGGSLRLSCAASGTFSNSVKWLYCQAPGKEREFVATIGVGGSTNYADSVIGRFTISRDNAKNTVYLQMNSRKQEDTAVYHCAAYGAASNFHYYRGQGTQVTVSS", "polyreactivity (PSR sort gate)": "low polyreactivity"}, {"sequence": "QVQLVESGGGLVQAGGSHRLSSAASGSIIPSYAMGWYRQAPGKERELVAAITTSGGNTFYADSVKGRFTISRDNAKNTVYLQMNSLKPEDTAVYYCAADYSPYTVEYDYWGQGTQVTVSS", "polyreactivity (PSR sort gate)": "low polyreactivity"}, {"sequence": "QDQLVESGGGLVQAGGSLRLSCAASGSIFPYNAMAWSRQAPGTERELVAGITYNGGSTYYADSVKGRFTISRDNAKNTVYLQMNSLKREDTAVYYCAAAGRRAFYRYDHWGQGTQVTVSS", "polyreactivity (PSR sort gate)": "high polyreactivity"}, {"sequence": "QLQLVESGGGLVQAGGSLRLSCAASGSTFGPYAMGWYRQAPGKDRELVASITRSGGDTYYADSVKGRFTISRDNAKNSVYLQMNSLKPEDTAVYYCNKASHANEFGYWGQGTQVTVSS", "polyreactivity (PSR sort gate)": "high polyreactivity"}, {"sequence": "QVQLVESGGGLVQAAGSLRLSCAASGLTFYYYAMGWYRQAPGKERELVAGISGSDGSTYYADSVNGRFTISRDNAKNSVYLQMNSLTPEDTAVYYCAAEYYYAWPLYYITDGIYDMYYWGQGTQVTVSS", "polyreactivity (PSR sort gate)": "low polyreactivity"}, {"sequence": "QVQLVESGGGLVQAGGSLRLSCAASGRIFWRYAMGWYRQAPGKERELVAAITGRTGSTNYADSVKGRFTISRDNAKNTVYLQMNSLKPEDTAVYYCAAAHHRWTGLYPSGYEFDYWGQGTQVTVSS", "polyreactivity (PSR sort gate)": "low polyreactivity"}, {"sequence": "QVQLVESGGGLVQAGGSLRLSCAASGFTFESNAIGWYRQAPGKERELVAAISSSGGSTYYADSVKGRFTISRDNAKNTVYLQMNSLKPEDTAVYYCNAYSLYYGGYDYWGQGTQVTVSS", "polyreactivity (PSR sort gate)": "high polyreactivity"}, {"sequence": "QVQLVESGGGLVQAGGSLRLSCAASGLIFRHYAMGWYRQSPGKEREFVAAITWSGGSTYYADSVKGRFTISRDNAKNTVYLQMNSLKPEDTAVYYCAAEGPGYGPTGDFYWYTYYYWGQGSQVTVSS", "polyreactivity (PSR sort gate)": "low polyreactivity"}, {"sequence": "QVQLVESGGGLVQAGGSLRLSCASSGFTFSDYAMAWYRQAPGKERELVADISTSGGSTYYADSVKGRFTISRDNAKNTVYLQMNSLKPEDTAVYYCAVRPGYYWGYWPRFGYWGQGTQVTVSS", "polyreactivity (PSR sort gate)": "low polyreactivity"}]}]}
